In patent US20230151068A1:

target: biotinylated His-Avi-TEAD (194-411) (UniProt P28347); experiment: SPR (Biacore T100, 25 C), captured biotinylated TEAD, peptide as analyte, single cycle kinetics

| Binder | Kd [nM] | koff [s⁻¹] | kon [M⁻¹ s⁻¹] |
| --- | --- | --- | --- |
| GSPDEYIERAKECCKKQDIQCCLRIFDESGDPNVMLICLFCW (designed binder) [peptide of SEQ ID NO: 10] | 0.372 | 0.00767 | 2.06e+07 |

target: biotinylated His-Avi-TEAD (194-411) (UniProt P28347); experiment: SPR, steady-state response against peptide concentration (M, log axis) with fitted curve

| Binder | EC50 (read off the curve) [nM] |
| --- | --- |
| GSPDEYIERAKECCKKQDIQCCLRIFDESKDPNVMLICLFCP (designed binder) [peptide of SEQ ID NO: 11] | 6 |
| GSPDEYIERARRCCRRGDIQCCLRYFEESGDPNVMLICLFCP (designed binder) [peptide of SEQ ID NO: 8] | 40 |

target: biotinylated His-Avi-TEAD (194-411) (UniProt P28347); experiment: SPR (Biacore T100, 25 C), captured biotinylated TEAD, peptide as analyte, kinetics 1:1 binding

| Binder | koff [s⁻¹] | kon [M⁻¹ s⁻¹] |
| --- | --- | --- |
| GSPDEYIERAKECCKKQDIQCCLRIFDESKDPNVMLICLFCP (designed binder) [peptide of SEQ ID NO: 11] | 0.117 | 3.1e+07 |

target: biotinylated His-Avi-TEAD (194-411) (UniProt P28347); experiment: SPR, single cycle kinetics, biotinylated TEAD captured on the chip, peptide injected at 0.044, 0.133, 0.4, 1.2, 3.6 nM

| Binder | Kd [nM] |
| --- | --- |
| GSPDEYIERAKECCKKQDIQCCLRIFDESGDPNVMLICLFCW (designed binder) [peptide of SEQ ID NO: 10] | 0.372 |

target: biotinylated His-Avi-TEAD (194-411) (UniProt P28347); experiment: SSM screen, enrichment after two rounds of sorting

| Binder | enrichment score |
| --- | --- |
| GSPHEYIERAKECCKKGDIQCCLRYFEESGDPNVMLICLFCP (designed binder) [D02H variant of SEQ ID NO: 1] | -1.05 |
| GSPDEHIERAKECCKKGDIQCCLRYFEESGDPNVMLICLFCP (designed binder) [Y04H variant of SEQ ID NO: 1] | -1.9 |
| GSKDEYIERAKECCKKGDIQCCLRYFEESGDPNVMLICLFCP (designed binder) [P01K variant of SEQ ID NO: 1] | -0.29 |
| GSHDEYIERAKECCKKGDIQCCLRYFEESGDPNVMLICLFCP (designed binder) [P01H variant of SEQ ID NO: 1] | -0.88 |
| GSPKEYIERAKECCKKGDIQCCLRYFEESGDPNVMLICLFCP (designed binder) [D02K variant of SEQ ID NO: 1] | -1.07 |
| GSPDEYEERAKECCKKGDIQCCLRYFEESGDPNVMLICLFCP (designed binder) [I05E variant of SEQ ID NO: 1] | -1.23 |
| GSPDKYIERAKECCKKGDIQCCLRYFEESGDPNVMLICLFCP (designed binder) [E03K variant of SEQ ID NO: 1] | -0.5 |
| GSPDEKIERAKECCKKGDIQCCLRYFEESGDPNVMLICLFCP (designed binder) [Y04K variant of SEQ ID NO: 1] | -1.58 |
| GSPDHYIERAKECCKKGDIQCCLRYFEESGDPNVMLICLFCP (designed binder) [E03H variant of SEQ ID NO: 1] | -0.31 |

Results, then the binder that gave them:

| enrichment score | Binder |
| --- | --- |
| 3.95 | GSPDEYIERAEECCKKGDIQCCLRYFEESGDPNVMLICLFCP (designed binder) [K09E variant of SEQ ID NO: 1] |
| -2.66 | GSPDEYIEREKECCKKGDIQCCLRYFEESGDPNVMLICLFCP (designed binder) [A08E variant of SEQ ID NO: 1] |
| -0.32 | GSPDEYIEHAKECCKKGDIQCCLRYFEESGDPNVMLICLFCP (designed binder) [R07H variant of SEQ ID NO: 1] |
| -1.57 | GSPDEYIHRAKECCKKGDIQCCLRYFEESGDPNVMLICLFCP (designed binder) [E06H variant of SEQ ID NO: 1] |
| -0.16 | GSPDEYIEEAKECCKKGDIQCCLRYFEESGDPNVMLICLFCP (designed binder) [R07E variant of SEQ ID NO: 1] |
| -7.27 | GSPDEYIERHKECCKKGDIQCCLRYFEESGDPNVMLICLFCP (designed binder) [A08H variant of SEQ ID NO: 1] |
| -2.99 | GSPDEYHERAKECCKKGDIQCCLRYFEESGDPNVMLICLFCP (designed binder) [I05H variant of SEQ ID NO: 1] |
| -1.97 | GSPDEYIERAKHCCKKGDIQCCLRYFEESGDPNVMLICLFCP (designed binder) [E10H variant of SEQ ID NO: 1] |
| -1.5 | GSPDEYIERAHECCKKGDIQCCLRYFEESGDPNVMLICLFCP (designed binder) [K09H variant of SEQ ID NO: 1] |

target: biotinylated His-Avi-TEAD (194-411) (UniProt P28347); experiment: SPR (Biacore T100, 25 C), captured biotinylated TEAD, peptide as analyte, steady-state

| Binder | Kd [nM] |
| --- | --- |
| GSPDEYIERAKECCKKQDIQCCLRIFDESKDPNVMLICLFCP (designed binder) [peptide of SEQ ID NO: 11] | 6.3 |
| GSPDEYIERARRCCRRGDIQCCLRYFEESGDPNVMLICLFCP (designed binder) [peptide of SEQ ID NO: 8] | 39 |
